# Changes are numbered by the printed parent chain.
# T1: murine laminin G-like 5 domain (mLG-5) (mouse, UniProt Q60675 2932-3118, biotinylated (Avi tag) ; Biotinylated at the Avi tag (soluble biotinylated protein); the tag is left out of the letters.)
# T1 construct: Soluble protein from Expi293F cells; also called murine LG-5
# T1 sequence: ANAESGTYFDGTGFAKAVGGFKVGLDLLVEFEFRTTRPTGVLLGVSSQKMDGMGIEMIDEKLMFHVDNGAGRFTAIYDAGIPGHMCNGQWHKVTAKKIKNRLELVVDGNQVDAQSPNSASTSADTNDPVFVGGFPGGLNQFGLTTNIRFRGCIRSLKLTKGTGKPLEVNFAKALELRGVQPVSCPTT
# T2: human beta-DG extracellular domain (human, UniProt Q14118 654-749, biotinylated in the Example 6 ELISA)
# T2 construct: extracellular domain; Expression of the soluble human protein is not described; also called hBeta-DG; hbeta-DG
# T2 sequence (looked up): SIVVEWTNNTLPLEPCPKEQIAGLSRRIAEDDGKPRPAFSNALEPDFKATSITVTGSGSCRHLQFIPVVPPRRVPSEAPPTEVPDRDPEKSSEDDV
# T3: murine beta-DG extracellular domain (mbeta-DG ECD) (mouse, UniProt Q62165 652-746)
# T3 construct: range 652-746; Made in E. coli; also called mbeta-DG-HPC4; m βDG; not shown: C-terminal HPC4 tag
# T3 sequence (looked up): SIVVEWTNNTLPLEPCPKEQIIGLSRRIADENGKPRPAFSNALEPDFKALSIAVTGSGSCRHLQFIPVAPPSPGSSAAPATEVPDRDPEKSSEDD
# T4: Fabrazyme (agalsidase beta, Genzyme) (UniProt P06280 32-429)
# T4 construct: Negative control in the dot blots
# T4 sequence (looked up): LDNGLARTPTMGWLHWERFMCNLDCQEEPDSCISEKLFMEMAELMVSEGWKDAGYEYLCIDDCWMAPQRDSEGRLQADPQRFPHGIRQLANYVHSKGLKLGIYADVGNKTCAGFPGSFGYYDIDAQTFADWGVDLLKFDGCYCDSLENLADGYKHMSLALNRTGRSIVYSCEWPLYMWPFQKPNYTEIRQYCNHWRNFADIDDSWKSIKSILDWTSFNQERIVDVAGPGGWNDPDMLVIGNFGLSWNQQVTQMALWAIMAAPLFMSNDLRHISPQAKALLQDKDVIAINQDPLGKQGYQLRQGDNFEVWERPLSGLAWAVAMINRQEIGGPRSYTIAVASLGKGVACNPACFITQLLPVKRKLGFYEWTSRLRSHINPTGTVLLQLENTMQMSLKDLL
# B1: anti-laminin-2 antibody derived from hybridoma clone C3 (antibody, V domains shown)
# VH: DVMLVESGGDLVKPGGSLKLSCAASGFTFSSYTMSWVRQTPEKRLEWVASISSGGGNTYYPDSVKGRFTISRDNAKNNLYLQMSSLRSEDTALYYCARFDYGSSLDSWGQGTTLTVSS
# VL: DIVLTQSPATLSVTPGDSVSLSCRASQSISNNLHWYQQKSHESPRLLIKYASQSISGIPSRFSGSGSGTDFTLSINSVETEDFGMYFCQQSKNWPRTFGGGTKLEIK
# notes: Hybridoma-derived monoclonal antibody detected with anti-mouse IgG; Chimeric human IgG1/kappa versions were also made; also called C03; anti-laminin-2(C3)
# B2: anti-beta-DG antibody derived from hybridoma clone AS30 (antibody, V domains shown)
# VH: QIQLQQSGPELVKPGASVKMSCEASGFTFTDSVITWVKQRPGQGLEWIGEIYPGSGNFYYNEKFKGKATLTADKSSNTAYMQLRSLTSEDSAVYFCAMRRSSWGQGTLVTVSA
# VL: DVLMTQTPLSLPVSLGDQASISCRSSQTIVHSNSKTYLEWYLQKPGQSPKLLIYKVSNRFSGVPDRFSGSGSGTDFTLKISRVEAEDLGVYYCFQGSHVPLTFGAGTKLELK
# notes: detected with anti-mouse IgG
# B3: anti-beta-DG antibody derived from hybridoma clone AS19 (antibody, V domains shown)
# VH: B2 VH with I2V, E23K, T35S, P41T, N57S, F58I, S102Y
# VL: B2 VL with T28S, S34G, K35N
# notes: Hybridoma-derived monoclonal antibody detected with anti-mouse IgG; also called parental anti-beta-DG (clone AS19)
# B4: triAb 3439 (bispecific antibody, human IgG1, kappa)
# light 1: EIVLTQSPDFLSVTPKEKVTLTCRASQSISNNLHWYQQKSDQSPKLLIKYASQSISGIPSRFSGSGSGTDFTLTINSVEAEDAATYFCQQSKSWPRTFGGGTKLEIKDKTHTEIVLTQSPDFLSVTPGEKVTLTCRASQSISNYLHWYQQKSDQSPKLLIKYASQSISGVPSRFSGSGSGTDFTLTISSVEAEDFATYFCQQSKSWPRTFGGGTKLEIKDKTHTRTVAAPSVFIFPPSDEQLKSGTASVVCLLNNFYPREAKVQWKVDNALQSGNSQESVTEQDSKDSTYSLSSTLTLSKADYEKHKVYACEVTHQGLSSPVTKSFNRGEC
# heavy 1: EVQLVESGGGLVQPGGSLRLSCAASGFTFSSYTMSWVRQAPGKGLEWVATISSSGDNTYYPDSVKGRFTISRDNSKNTLYLQMSSLRAEDTALYYCARFDYGSSLDSWGQGTTLTVSSDKTHTEVQLVESGGGLVKPGGSLRLSCAASGFTFSSYTMSWVRQAPGKGLEWVASISSSGSNTYYPDSVKGRFTISRDNAKNNLYLQMNSLRAEDTALYYCARFDYGSSLDSWGQGTLLTVSSDKTHTASTKGPSVFPLAPSSKSTSGGTAALGCLVKDYFPEPVTVSWNSGALTSGVHTFPAVLQSSGSLSSVVTVPSSSLGTQTYICNVNHKPSNTKVDKKVEPKSCDKTHTCPPCPAPELLGGPSVFLFPPKPKDTLYITREPEVTCVVVDVSHEDPEVKFNWYVDGVEVHNAKTKPREEQYNNASRVVSVLTVLHQDWLNGKEYKCKVSNKALPAPIEKTISKAKGQPREPQVYTLPPCRDELTKNQVSLWCLVKGFYPSDIAVEWESNGQPENNYKTTPPVLDSDGSFFKKLTVDKSRWQQGNVFSCSVMHEALHNHYTQKSLSLSPG
# heavy 2: QVQLVQSGAEVVKPGSSVKVSCEASGFTFTDSVITWVRQRPGQGLEWIGEIYPGSGNFYYNEKFQGRVTITADKSTSTAYMELSSLRSEDTAVYFCAMRRSSWGQGTLVTVSSASTKGPSVFPLAPSSKSTSGGTAALGCLVKDYFPEPVTVSWNSGALTSGVHTFPAVLQSSGSLSSVVTVPSSSLGTQTYICNVNHKPSNTKVDKKVEPKSCDKTHTCPPCPAPELLGGPSVFLFPPKPKDTLYITREPEVTCVVVDVSHEDPEVKFNWYVDGVEVHNAKTKPREEQYNNASRVVSVLTVLHQDWLNGKEYKCKVSNKALPAPIEKTISKAKGQPREPQVCTLPPSRDELTKNQVSLSCAVKGFYPSDIAVEWESNGQPENNYKTTPPVLDSDGSFFLVSKLTVDKSRWQQGNVFSCSVMHEALHNRFTQKSLSLSPG
# light 2: DVVMTQTPLSLSVTPGQPASISCKSSQTIVHSNSKTYLEWYLQKPGQSPQLLIYKVSSRFSGVPDRFSGSGSGTDFTLKISRVEAEDVGVYYCFQGSHVPLTFGQGTKLEIKRTVAAPSVFIFPPSDEQLKSGTASVVCLLNNFYPREAKVQWKVDNALQSGNSQESVTEQDSKDSTYSLSSTLTLSKADYEKHKVYACEVTHQGLSSPVTKSFNRGEC
# B5: triAb 3429 (bispecific antibody, human IgG1, kappa)
# light 1: EIVLTQSPDFLSVTPGEKVTLTCRASQSISNYLHWYQQKSDQSPKLLIKYASQSISGVPSRFSGSGSGTDFTLTISSVEAEDFATYFCQQSKSWPRTFGGGTKLEIKDKTHTEIVLTQSPDFLSVTPKEKVTLTCRASQSIGNNLHWYQQKSDQSPKLLIKYASQSISGIPSRFSGSGSGTDFTLTINSVEAEDAATYFCQQSKSWPRTFGGGTKLEIKDKTHTRTVAAPSVFIFPPSDEQLKSGTASVVCLLNNFYPREAKVQWKVDNALQSGNSQESVTEQDSKDSTYSLSSTLTLSKADYEKHKVYACEVTHQGLSSPVTKSFNRGEC
# heavy 1: EVQLVESGGGLVKPGGSLRLSCAASGFTFSSYTMSWVRQAPGKGLEWVASISSSGSNTYYPDSVKGRFTISRDNAKNNLYLQMNSLRAEDTALYYCARFDYGSSLDSWGQGTLLTVSSDKTHTEVQLVESGGGLVQPGGSLRLSCAASGFTFSSYTMSWVRQAPGKGLEWVATISSSGDNTYYPDSVKGRFTISRDNSKNTLYLQMSSLRAEDTALYYCARFDYGSSLDSWGQGTTLTVSSDKTHTASTKGPSVFPLAPSSKSTSGGTAALGCLVKDYFPEPVTVSWNSGALTSGVHTFPAVLQSSGSLSSVVTVPSSSLGTQTYICNVNHKPSNTKVDKKVEPKSCDKTHTCPPCPAPELLGGPSVFLFPPKPKDTLYITREPEVTCVVVDVSHEDPEVKFNWYVDGVEVHNAKTKPREEQYNNASRVVSVLTVLHQDWLNGKEYKCKVSNKALPAPIEKTISKAKGQPREPQVYTLPPCRDELTKNQVSLWCLVKGFYPSDIAVEWESNGQPENNYKTTPPVLDSDGSFFKKLTVDKSRWQQGNVFSCSVMHEALHNHYTQKSLSLSPG
# heavy 2: B4 heavy 2
# light 2: B4 light 2
# B6: anti-beta-DG antibody derived from phage display clone B06 (antibody, V domains shown)
# VH: QIQLVQSGAEVKKPGKSLKIACKGSGYSFSNYWIGWVRQMPGKGLEWMGIIYPGDSDTRYSPSFHGQVTISADKSISTAYLQWSSLKASDTAMYYCARGVIINGTTSGFDYWGQGTLVIVSS
# VL: ETTLTQSPATLSVSPGERATLSCRASQSVSSNLAWYQQKPGQAPRLLMYGASTRATGIPARFSGSGSGTEFTLTISSLQSEDFAVYYCQHYNNLPLTFGGGTKVDLK
# notes: Phage display clone; also called B6
# B7: anti-beta-DG antibody phage display clone B04 (antibody, V domains shown)
# VH: QVQLQQSGGGLVQPGGSLRLSCAASGFTFSSYAMSWVRQAPGKGLEWVSAISGSGGSTYYADSVKGRFTVSRDNSKNTLYLQMNSLRAEDTAVYYCARLGYCSSTSCYLSAFDIWGQGTMVTVSS
# VL: EIVLTQSPSTLSASVGDRVTITCRASQSISSWLAWYQQKPGKAPKLLIYDASSLESGVPSRFSGSGSGTEFTLTISSLQPDDFATYYCQQYNSYPLTFGGGTKVEIK
# notes: Phage display clone
# Legend:
# [1] = target: T1, murine laminin G-like 5 domain (mLG-5); test: SPR (Biacore), mAb immobilized, mLG-5 in flow
# [2] = target: T2, human beta-DG extracellular domain; test: SPR (Biacore), mAb immobilized, hBeta-DG in flow
# [3] = target: T3, murine beta-DG extracellular domain …; test: SPR (Biacore), mAb immobilized, mBeta-DG in flow
# [4] = target: T4, Fabrazyme (agalsidase beta, Genzyme); test: dot blot
# [5] = target: T2, human beta-DG extracellular domain; test: SPR (Biacore T100), antibody captured on Protein G chip, BDG in flow, 1:1 model
binder,measurement,setting,value
B1,Kd,[1],8.27 nM
B2,Kd,[2],1.08 nM
same,koff,[2],0.000963 s⁻¹
same,kon,[2],890000 M⁻¹ s⁻¹
same,Kd,[3],1.48 nM
same,koff,[3],0.00113 s⁻¹
same,kon,[3],773000 M⁻¹ s⁻¹
same,binding result,[4],no binding
B3,binding result,[4],no binding
B4,Kd,[5],1.3 nM
same,koff,[5],0.004 s⁻¹
same,kon,[5],3.07e+06 M⁻¹ s⁻¹
B5,Kd,[5],1.9 nM
same,koff,[5],0.00404 s⁻¹
same,kon,[5],2.13e+06 M⁻¹ s⁻¹
B6,Kd,[2],2.36 nM
same,koff,[2],0.00216 s⁻¹
same,kon,[2],968000 M⁻¹ s⁻¹
same,Kd,[3],162 nM
same,koff,[3],0.00232 s⁻¹
same,kon,[3],14300 M⁻¹ s⁻¹
B7,Kd,[2],2.57 nM

# Reference: patent EP4659808A2 (Sanofi, dated 2025)
